Measurements reported in publication PMC7923384.

Target: ZMYND8 (UniProt Q9ULU4)
Test: co-IP of Flag-ZMYND8 and Myc-EZH2
Details: reference: wild type; sites T487

binding against the reference: weaker
Substance: EZH2 (from UniProt Q15910) T487A
